Several values for one entry are separate records, joined by “and”; a condition that tells them apart may be missing. Equal values may be shown once.
How the values were obtained:
[1] = tested on: Caco-2 intestinal epithelial cells; experiment: IL-8 secretion by Caco-2 cells (Luminex-100); assay type: cell-based, human; settings: 18 hours
Procedure: TNFα (100 ng/ml; dark grey bar) served as a positive control. Following incubation for 18 hours, culture supernatants were analyzed for IL-8 using the Luminex-100 system in duplicate. Data represent mean and standard deviation of three individual experiments.
No peptides (c) and TNFα alone (dark grey bar) served as controls. Following incubation for 18 hours, culture supernatants were analyzed for IL-8 using the Luminex-100 system in duplicate. Data represent mean and standard deviation of three individual experiments.
Subconfluent monolayers of Caco-2 cells were maintained in RPMI 1640 medium (Gibco), supplemented with 10% FBS (Valley Biomedical, Winchester, Va.), 2 mM L-glutamine (Quality Biological, Gaithersburg, Md.), 20 mM HEPES, 1× nonessential amino acids, 1 mM sodium pyruvate and 5% Penicillin/Streptomycin (Sigma) in a humidified incubator at 37° C. with 5% CO2. Caco-2 cells were used between passages 35-42. Caco-2 cells were plated at a density of 4×10^4 cells/cm^2 in a 96-well plate 48 hours before use. The cells were gently washed twice with serum-free medium and incubated for a further 18 hours in serum-free medium containing the peptides at a final concentration of 50 or 100 ug/ml. Human recombinant tumor necrosis factor alpha (Sigma; 100 ng/ml) was included during incubation with the peptides (100 ug/ml) as indicated. The culture supernatant was collected for measurement of IL-8 using the Luminex-100 system (Bio-rad Laboratories).

[2] = target: T1, Laminin (basement membrane of Engelbreth-Holm-Swarm mouse sarcoma) (Mus musculus, UniProt P02468+P02469+P19137); experiment: Surface plasmon resonance (BIAcore 3000), immobilized SlpA binding to laminin
T1 construct: Laminin (basement membrane of Engelbreth-Holm-Swarm mouse sarcoma); purchased Sigma; host or cells: Engelbreth-Holm-Swarm mouse sarcoma basement membrane
Procedure: (§1) The interaction between SlpA and extracellular matrix components was evaluated by surface plasmon resonance on a BIAcore 3000 instrument. Purified SlpA protein in 5M LiCl was dialyzed against double-distilled water overnight. Monomeric and/or oligomeric protein was separated from self-assembled material by centrifugation at 20,000×g for 20 min. SlpA protein (50 ug/ml in 10 mM Sodium Phosphate pH 7.4) was covalently coupled to CM5 carboxylated dextran chips using N-hydroxysuccinimide (NHS) chemistry. Uncoupled NHS-ester groups were blocked with 1M Ethanolamine, resulting in the coupling of about 1700 resonance units (RU's) to the chip. Kinetic analysis was carried out at 25° C. in 10 mM HEPES, 150 mM NaCl, 3 mM EDTA, 0.005% surfactant P20, pH 7.4. Fibronectin, laminin, fibrinogen and collagen were treated according to manufacturer's instructions and injected at indicated concentrations at a flow rate of 20 ul/min over each flow cell. Binding was determined experimentally by comparing the number of RU's observed as a function of time to an activated and blocked flow cell containing no linked protein. Non-specific binding to the control flow cell appeared insignificant. Data were evaluated using the BIAevaluation 4.1 software. The association and dissociation data were modeled with the BIAevaluation 4.1 software (Pharmacia Biosensor AB). Following subtraction of data from the control flow cell, the binding data produced for the various protein concentrations were fitted simultaneously, assuming the 1:1 Langmuir model. The equilibrium constant for the fibronectin+benzamidine experiment was calculated using steady-state kinetics.
(§2) To examine the binding properties of SlpA to the extracellular matrix proteins fibronectin, laminin, fibrinogen and collagen in detail, surface plasmon resonance was used. […] The association and dissociation rate constants were estimated from the binding data at different concentrations using the BIAevaluation software and from these values the binding constant was calculated (Table 2). […] In addition, the interaction between SlpA and the ECN components fibrinogen and collagen was studied.

[3] = target: T2, Fibrinogen (human plasma) (Homo sapiens, UniProt P02671+P02675+P02679); experiment: Surface plasmon resonance (BIAcore 3000), immobilized SlpA binding to fibrinogen; settings: from binding constants
T2 construct: Fibrinogen (human plasma) was obtained from Calbiochem; purchased Calbiochem; host or cells: human plasma
T2 sequence (P02671 20-644 isoform P02671-2 limits assumed): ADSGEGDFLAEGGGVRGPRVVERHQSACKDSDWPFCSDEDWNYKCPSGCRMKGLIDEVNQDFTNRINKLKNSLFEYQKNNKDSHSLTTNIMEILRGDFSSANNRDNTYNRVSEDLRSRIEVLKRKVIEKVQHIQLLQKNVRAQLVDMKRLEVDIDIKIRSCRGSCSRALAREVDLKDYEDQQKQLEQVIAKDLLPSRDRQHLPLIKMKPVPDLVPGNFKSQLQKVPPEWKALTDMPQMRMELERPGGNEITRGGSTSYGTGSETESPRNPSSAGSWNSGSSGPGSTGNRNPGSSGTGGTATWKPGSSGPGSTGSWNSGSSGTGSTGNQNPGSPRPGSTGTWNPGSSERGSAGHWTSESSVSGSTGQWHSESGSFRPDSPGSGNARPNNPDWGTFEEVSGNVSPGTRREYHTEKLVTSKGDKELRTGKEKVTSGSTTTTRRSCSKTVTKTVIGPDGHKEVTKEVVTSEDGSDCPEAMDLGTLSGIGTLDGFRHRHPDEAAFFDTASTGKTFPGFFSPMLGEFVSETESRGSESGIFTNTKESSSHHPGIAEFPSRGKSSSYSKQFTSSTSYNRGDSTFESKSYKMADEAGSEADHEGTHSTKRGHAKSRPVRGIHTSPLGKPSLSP
T2 sequence (P02675 31-491): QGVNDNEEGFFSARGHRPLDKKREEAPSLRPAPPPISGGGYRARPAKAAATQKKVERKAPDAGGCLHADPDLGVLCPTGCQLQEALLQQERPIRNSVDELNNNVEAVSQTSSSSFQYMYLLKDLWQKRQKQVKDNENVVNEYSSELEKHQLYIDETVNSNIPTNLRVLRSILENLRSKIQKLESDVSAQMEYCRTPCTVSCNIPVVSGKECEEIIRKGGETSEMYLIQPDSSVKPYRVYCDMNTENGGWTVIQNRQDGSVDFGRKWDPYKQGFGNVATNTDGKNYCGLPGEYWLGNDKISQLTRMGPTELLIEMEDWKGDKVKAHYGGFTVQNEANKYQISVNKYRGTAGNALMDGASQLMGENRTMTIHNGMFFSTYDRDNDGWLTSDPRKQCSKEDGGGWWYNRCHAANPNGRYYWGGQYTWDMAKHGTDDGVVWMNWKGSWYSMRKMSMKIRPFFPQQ
T2 sequence (P02679 27-437 isoform P02679-2 limits assumed): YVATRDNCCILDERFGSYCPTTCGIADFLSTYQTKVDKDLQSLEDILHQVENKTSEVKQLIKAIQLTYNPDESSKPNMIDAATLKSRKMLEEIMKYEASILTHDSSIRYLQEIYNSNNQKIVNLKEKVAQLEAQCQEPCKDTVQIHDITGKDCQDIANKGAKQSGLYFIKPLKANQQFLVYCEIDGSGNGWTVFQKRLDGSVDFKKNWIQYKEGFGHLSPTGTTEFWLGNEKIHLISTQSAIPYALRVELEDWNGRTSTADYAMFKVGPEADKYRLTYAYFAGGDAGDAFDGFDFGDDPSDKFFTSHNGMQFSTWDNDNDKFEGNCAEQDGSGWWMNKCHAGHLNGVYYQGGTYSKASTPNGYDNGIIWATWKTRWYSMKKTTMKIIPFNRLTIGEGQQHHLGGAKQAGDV
Procedure: The interaction between SlpA and extracellular matrix components was evaluated by surface plasmon resonance on a BIAcore 3000 instrument. Purified SlpA protein in 5M LiCl was dialyzed against double-distilled water overnight. Monomeric and/or oligomeric protein was separated from self-assembled material by centrifugation at 20,000×g for 20 min. SlpA protein (50 ug/ml in 10 mM Sodium Phosphate pH 7.4) was covalently coupled to CM5 carboxylated dextran chips using N-hydroxysuccinimide (NHS) chemistry. Uncoupled NHS-ester groups were blocked with 1M Ethanolamine, resulting in the coupling of about 1700 resonance units (RU's) to the chip. […] Binding was determined experimentally by comparing the number of RU's observed as a function of time to an activated and blocked flow cell containing no linked protein. […] Data were evaluated using the BIAevaluation 4.1 software. […] The equilibrium constant for the fibronectin+benzamidine experiment was calculated using steady-state kinetics.
To examine the binding properties of SlpA to the extracellular matrix proteins fibronectin, laminin, fibrinogen and collagen in detail, surface plasmon resonance was used. […] The association and dissociation rate constants were estimated from the binding data at different concentrations using the BIAevaluation software and from these values the binding constant was calculated (Table 2). […]

[4] = target: T3, Collagen (human placenta Type IV) (Homo sapiens, UniProt P02462+P08572); experiment: Surface plasmon resonance (BIAcore 3000), immobilized SlpA binding to collagen
T3 construct: purchased Sigma; host or cells: human placenta
T3 sequence (P02462 173-1669): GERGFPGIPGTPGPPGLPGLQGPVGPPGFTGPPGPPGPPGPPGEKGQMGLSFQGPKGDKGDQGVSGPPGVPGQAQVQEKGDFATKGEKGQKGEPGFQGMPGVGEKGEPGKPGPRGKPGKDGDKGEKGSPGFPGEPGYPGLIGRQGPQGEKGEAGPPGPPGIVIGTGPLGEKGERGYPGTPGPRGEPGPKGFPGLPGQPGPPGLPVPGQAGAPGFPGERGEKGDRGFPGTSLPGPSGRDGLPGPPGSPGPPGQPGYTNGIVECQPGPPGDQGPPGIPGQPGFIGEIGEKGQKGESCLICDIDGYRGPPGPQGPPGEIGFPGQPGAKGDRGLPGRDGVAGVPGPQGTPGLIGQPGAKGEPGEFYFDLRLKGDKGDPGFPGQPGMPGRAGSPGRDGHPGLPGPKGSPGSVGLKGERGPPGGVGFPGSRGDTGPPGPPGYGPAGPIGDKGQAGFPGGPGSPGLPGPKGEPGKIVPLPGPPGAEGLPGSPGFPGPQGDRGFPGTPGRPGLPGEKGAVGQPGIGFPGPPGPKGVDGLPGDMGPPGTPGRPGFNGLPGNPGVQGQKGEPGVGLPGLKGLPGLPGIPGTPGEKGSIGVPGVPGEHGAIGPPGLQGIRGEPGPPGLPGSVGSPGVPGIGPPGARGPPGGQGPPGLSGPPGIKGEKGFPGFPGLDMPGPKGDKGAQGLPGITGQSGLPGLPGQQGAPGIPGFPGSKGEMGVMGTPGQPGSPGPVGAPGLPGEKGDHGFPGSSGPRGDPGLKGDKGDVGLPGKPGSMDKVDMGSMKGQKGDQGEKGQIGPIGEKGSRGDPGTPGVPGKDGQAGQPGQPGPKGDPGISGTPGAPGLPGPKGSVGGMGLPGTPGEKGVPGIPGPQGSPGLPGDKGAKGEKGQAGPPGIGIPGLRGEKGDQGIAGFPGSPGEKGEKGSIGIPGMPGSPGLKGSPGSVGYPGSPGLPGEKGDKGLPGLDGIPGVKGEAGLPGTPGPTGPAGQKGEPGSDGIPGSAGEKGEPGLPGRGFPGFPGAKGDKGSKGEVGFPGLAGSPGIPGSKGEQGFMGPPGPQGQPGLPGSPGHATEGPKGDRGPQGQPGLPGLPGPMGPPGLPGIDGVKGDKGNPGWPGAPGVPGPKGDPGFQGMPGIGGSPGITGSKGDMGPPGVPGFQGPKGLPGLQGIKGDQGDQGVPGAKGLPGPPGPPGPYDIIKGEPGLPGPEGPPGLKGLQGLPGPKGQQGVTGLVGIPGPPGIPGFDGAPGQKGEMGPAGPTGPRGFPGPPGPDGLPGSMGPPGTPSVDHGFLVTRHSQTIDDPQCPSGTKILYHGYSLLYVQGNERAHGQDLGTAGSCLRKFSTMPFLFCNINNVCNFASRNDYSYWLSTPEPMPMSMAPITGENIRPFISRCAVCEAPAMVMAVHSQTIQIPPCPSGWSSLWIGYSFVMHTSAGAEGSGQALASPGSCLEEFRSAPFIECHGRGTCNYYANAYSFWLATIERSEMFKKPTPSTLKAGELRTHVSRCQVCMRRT
T3 sequence (P08572 184-1712): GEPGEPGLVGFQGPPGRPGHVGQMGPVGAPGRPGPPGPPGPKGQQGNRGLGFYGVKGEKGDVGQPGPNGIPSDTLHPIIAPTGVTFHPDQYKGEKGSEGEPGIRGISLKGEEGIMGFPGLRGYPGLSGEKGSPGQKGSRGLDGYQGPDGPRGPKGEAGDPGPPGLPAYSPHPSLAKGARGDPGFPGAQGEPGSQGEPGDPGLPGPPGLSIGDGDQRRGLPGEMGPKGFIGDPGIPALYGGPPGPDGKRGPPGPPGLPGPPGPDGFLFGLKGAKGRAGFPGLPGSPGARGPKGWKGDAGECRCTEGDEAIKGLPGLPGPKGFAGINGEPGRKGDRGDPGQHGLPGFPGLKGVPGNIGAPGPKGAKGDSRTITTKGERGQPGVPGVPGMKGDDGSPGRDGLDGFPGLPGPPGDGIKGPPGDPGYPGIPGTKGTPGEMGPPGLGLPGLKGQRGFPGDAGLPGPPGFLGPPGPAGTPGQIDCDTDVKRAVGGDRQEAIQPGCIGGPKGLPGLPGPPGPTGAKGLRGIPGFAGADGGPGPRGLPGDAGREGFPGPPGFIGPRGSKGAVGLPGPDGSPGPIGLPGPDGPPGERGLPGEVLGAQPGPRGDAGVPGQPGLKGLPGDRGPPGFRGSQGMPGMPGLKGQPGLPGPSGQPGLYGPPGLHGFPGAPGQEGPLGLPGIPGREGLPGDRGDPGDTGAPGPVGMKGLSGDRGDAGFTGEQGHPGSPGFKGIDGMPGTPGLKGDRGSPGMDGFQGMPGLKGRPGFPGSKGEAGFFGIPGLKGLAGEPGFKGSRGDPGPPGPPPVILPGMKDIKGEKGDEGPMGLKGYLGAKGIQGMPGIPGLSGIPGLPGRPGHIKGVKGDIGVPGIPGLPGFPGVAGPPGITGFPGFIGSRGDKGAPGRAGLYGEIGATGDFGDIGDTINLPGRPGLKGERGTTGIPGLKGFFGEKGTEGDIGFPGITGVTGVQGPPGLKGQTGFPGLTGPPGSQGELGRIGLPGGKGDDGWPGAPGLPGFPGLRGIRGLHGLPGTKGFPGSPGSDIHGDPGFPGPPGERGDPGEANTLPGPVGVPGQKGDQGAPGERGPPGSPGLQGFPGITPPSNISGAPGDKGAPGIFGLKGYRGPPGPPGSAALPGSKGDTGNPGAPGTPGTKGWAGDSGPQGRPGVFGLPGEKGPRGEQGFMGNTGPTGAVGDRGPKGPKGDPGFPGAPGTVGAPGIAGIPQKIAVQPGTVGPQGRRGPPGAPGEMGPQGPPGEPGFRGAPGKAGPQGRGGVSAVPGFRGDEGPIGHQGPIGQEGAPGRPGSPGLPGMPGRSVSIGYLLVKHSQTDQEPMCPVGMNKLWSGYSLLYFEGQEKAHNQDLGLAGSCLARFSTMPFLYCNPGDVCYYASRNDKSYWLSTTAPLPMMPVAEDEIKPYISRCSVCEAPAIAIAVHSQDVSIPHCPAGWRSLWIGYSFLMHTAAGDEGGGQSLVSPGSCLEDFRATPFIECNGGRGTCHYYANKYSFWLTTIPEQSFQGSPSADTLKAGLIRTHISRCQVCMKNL
Procedure: as §1, §2

[5] = target: Fibronectin (human plasma); experiment: Surface plasmon resonance (BIAcore 3000), immobilized SlpA binding to fibronectin
Procedure: as §1, §2

S. aureus ATCC 29213 = experiment: Antibacterial activity, 96-well turbidimetric assay, S. aureus; assay type: cell-based, Staphylococcus aureus
Procedure: (§3) Strains were exposed to the peptides at concentrations varying twofold from 0.12 to 125 μg/ml. (B) Strains were exposed to fixed peptide concentrations (100 ug/ml for E. coli; 50 ug/ml for S. aureus) in the absence or presence of the indicated concentrations of sodium chloride. Each curve is the mean of three separate experiments. Points scored as zero survival could not be plotted.
(§4) The antibacterial activity of HD-5 and HD-5Abu against E. coli ATCC 25922 and S. aureus ATCC 29213 was carried out in a 96-well turbidimetric assay as described previously.

E. coli ATCC 25922 = experiment: Antibacterial activity, 96-well turbidimetric assay, E. coli; assay type: cell-based, Escherichia coli
Procedure: as §3, §4

[6] = fibronectin to immobilized SlpA
[7] = peptide 0.12 to 125 μg/ml, 2 hour incubation

TNFα [reference compound]
IL-8 secretion increase relative to the control ([1]; TNFα 100 ng/ml alone): ~10 fold

B1: SlpA: Surface layer (S-layer) protein purified from Lactobacillus brevis ATCC 8287 by 5M LiCl extraction and gel filtration (protein)
chain: KSYATAGAYSTLKTDAATRNVEATGTNALYTKPGTVKGAKVVASKATMAKLASSKKSADYFRAYGVKTTNRGSVYYRVVTMDGKYRGYVYGGKSDTAFAGGIKSAETTTKADMPARTTGFYLTDTSKNTLWTAPKYTQYKASKVSLYGVAKDTKFTVDQAATKTREGSLYYHVTATNGSGISGWIYAGKGFSTTATGTQVLGGLSTDKSVTATNDNSVKIVYRTTDGTQVGSNTWVTSTDGTKAGSKVSDKAADQTALEAYINANKPSGYTVTNPNAADATYGNTVYATVSQAATSKVALKVSGTPVTTALTTADANDKVAANDTTANGSSVAGSTVYAAGTKLAQLTTDLTGEKGQVVTLTAIDTDLEDATFTGTTTYYSDLGKAYHYTYTYNKDSAASSNASTQFGSNVTGTLTATLVMGKSTATANGTTWFN
affinity of SlpA to bind laminin compared with fibronectin ([2]; from calculated Kd values): three-fold higher affinity | ka × 10^3 ([2]; laminin + benzamidine (1 mM)): 3.03 × 10^3 | kd × 10^−3 (s^−1) ([2]; laminin + benzamidine (1 mM)): 2 × 10^−3 s^−1 | ka × 10^3 ([2]; laminin to immobilized SlpA): 4.89 × 10^3 | kd × 10^−3 (s^−1) ([2]; laminin to immobilized SlpA): 1.3 × 10^−3 s^−1 | binding affinity for fibrinogen compared with affinity for fibronectin and laminin [3]: three orders of magnitude less | Kd ([4]; collagen to immobilized SlpA): 31.8 µM | ka × 10^3 ([4]; collagen to immobilized SlpA): 3.47 × 10^3 | kd × 10^−3 (s^−1) ([4]; collagen to immobilized SlpA): 1.1 × 10^−3 s^−1 | binding affinity for collagen compared with affinity for fibronectin and laminin ([4]; from binding constants): three orders of magnitude less | Kd ([5]; fibronectin + benzamidine (SlpA preincubated with 1 mM benzamidine), steady-state kinetics): 30.1 µM | ka × 10^3 [5, 6]: 7.04 × 10^3 | kd × 10^−3 (s^−1) [5, 6]: 6.32 × 10^−3 s^−1 | Kd ([5]; fibronectin to immobilized SlpA, 25° C., 1:1 Langmuir model): 0.0899 µM and 0.0898 µM

B2: HD-5α: human α-defensin 5, chemically synthesized and folded, three intra-molecular disulfide bonds (peptide, UniProt Q01523 20-94, looked up)
Defensin alpha 5: ESLQERADEATTQKQSGEDNQDLAISFAGNGLSALRTSGSQARATCYCRTGRCATRESLSGVCEISGRLYRLCCR
modifications: Defensin-5
notes: human α-defensin 5, chemically synthesized and folded, three intra-molecular disulfide bonds
antibacterial activity against S. aureus at highest salt concentration (S. aureus ATCC 29213; peptide 50 ug/ml, 100 mM sodium chloride): still significantly toxic | antimicrobial activity (killing) against S. aureus (S. aureus ATCC 29213; [7]): efficiently killed | antibacterial activity against E. coli at highest salt concentration (E. coli ATCC 25922; peptide 100 ug/ml, 100 mM sodium chloride): almost completely inhibited | antimicrobial activity (killing) against E. coli (E. coli ATCC 25922; [7]): efficiently killed | IL-8 levels increase compared to control cells ([1]; peptide 100 ug/ml, serum-free medium): ~10 fold | induction of IL-8 secretion ([1]; peptide 50 and 100 ug/ml): dose-dependent
